The target in experiment [1] is T1, acetic acid-extracted tail tendon mouse collagen I (mouse, UniProt P11087 152-1207; Q01149 86-1125).
T1 construct: collagen I alpha1 chain, mouse, tissue-extracted; collagen I alpha2 chain, mouse, tissue-extracted; also called collagen type I; full-length collagen; source: extracted from mouse tail tendons using 20 mM acetic acid
The experiment can be described thus: ELISA; solid-phase assay: collagen coated at 10 μg/ml in PBS; serially diluted FMOD or LOX; detected with anti-His tag or anti-LOX antibodies; apparent KD. The conditions noted are these: both partners purified. (In an ELISA, binding on a coated surface is turned into a signal by an enzyme label.)

The target in experiment [2] is T2, recombinant lysyl oxidase protein (Origene) (UniProt P28300 22-417).
T2 construct: lysyl oxidase; the functional rows use this molecule for it; source: bought: Origene
T2 sequence (looked up): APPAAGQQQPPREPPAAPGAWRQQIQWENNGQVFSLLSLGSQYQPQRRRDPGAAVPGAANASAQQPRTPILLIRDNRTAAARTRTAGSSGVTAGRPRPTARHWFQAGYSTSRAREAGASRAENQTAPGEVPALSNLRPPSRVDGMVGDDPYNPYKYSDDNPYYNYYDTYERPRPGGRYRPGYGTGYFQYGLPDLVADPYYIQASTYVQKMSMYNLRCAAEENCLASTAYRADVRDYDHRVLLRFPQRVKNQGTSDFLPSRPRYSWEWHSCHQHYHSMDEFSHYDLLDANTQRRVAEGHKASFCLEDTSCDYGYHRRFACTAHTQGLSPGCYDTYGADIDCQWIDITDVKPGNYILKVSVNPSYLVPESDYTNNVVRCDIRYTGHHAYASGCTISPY
The experiment can be described thus: ELISA; solid-phase assay: FMOD variants coated; serial dilutions of LOX; detected with anti-LOX antibody; apparent KD. As to conditions: both partners purified.

T1 sequence (P11087 152-1207, chain 1 of 2): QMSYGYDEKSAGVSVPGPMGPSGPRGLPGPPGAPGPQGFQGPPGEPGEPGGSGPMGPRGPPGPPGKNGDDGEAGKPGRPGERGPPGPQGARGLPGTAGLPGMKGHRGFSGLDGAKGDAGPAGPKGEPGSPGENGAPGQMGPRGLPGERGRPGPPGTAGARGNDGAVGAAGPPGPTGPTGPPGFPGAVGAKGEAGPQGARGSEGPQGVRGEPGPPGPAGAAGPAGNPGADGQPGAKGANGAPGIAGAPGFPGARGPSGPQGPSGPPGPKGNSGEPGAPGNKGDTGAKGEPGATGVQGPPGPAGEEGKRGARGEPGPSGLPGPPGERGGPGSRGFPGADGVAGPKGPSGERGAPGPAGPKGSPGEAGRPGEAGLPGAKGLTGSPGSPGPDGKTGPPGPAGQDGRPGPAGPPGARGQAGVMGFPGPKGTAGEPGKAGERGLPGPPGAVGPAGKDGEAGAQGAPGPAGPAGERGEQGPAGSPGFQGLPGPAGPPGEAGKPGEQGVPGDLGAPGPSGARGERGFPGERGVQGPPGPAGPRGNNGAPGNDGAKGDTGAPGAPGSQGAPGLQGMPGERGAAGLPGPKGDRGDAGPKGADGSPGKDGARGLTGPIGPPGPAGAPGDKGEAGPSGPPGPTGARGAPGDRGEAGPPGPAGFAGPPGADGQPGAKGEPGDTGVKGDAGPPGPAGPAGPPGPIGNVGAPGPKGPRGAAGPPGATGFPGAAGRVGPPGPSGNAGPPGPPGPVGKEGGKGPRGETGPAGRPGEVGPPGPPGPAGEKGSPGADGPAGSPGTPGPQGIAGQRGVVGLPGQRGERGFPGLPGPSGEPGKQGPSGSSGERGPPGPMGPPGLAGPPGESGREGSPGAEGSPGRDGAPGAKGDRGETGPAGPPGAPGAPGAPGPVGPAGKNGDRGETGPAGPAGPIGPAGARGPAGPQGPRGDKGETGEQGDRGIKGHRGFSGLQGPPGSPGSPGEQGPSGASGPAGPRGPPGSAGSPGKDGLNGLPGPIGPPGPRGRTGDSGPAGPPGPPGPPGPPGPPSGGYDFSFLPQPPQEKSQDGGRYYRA
T1 sequence (Q01149 86-1125, chain 2 of 2): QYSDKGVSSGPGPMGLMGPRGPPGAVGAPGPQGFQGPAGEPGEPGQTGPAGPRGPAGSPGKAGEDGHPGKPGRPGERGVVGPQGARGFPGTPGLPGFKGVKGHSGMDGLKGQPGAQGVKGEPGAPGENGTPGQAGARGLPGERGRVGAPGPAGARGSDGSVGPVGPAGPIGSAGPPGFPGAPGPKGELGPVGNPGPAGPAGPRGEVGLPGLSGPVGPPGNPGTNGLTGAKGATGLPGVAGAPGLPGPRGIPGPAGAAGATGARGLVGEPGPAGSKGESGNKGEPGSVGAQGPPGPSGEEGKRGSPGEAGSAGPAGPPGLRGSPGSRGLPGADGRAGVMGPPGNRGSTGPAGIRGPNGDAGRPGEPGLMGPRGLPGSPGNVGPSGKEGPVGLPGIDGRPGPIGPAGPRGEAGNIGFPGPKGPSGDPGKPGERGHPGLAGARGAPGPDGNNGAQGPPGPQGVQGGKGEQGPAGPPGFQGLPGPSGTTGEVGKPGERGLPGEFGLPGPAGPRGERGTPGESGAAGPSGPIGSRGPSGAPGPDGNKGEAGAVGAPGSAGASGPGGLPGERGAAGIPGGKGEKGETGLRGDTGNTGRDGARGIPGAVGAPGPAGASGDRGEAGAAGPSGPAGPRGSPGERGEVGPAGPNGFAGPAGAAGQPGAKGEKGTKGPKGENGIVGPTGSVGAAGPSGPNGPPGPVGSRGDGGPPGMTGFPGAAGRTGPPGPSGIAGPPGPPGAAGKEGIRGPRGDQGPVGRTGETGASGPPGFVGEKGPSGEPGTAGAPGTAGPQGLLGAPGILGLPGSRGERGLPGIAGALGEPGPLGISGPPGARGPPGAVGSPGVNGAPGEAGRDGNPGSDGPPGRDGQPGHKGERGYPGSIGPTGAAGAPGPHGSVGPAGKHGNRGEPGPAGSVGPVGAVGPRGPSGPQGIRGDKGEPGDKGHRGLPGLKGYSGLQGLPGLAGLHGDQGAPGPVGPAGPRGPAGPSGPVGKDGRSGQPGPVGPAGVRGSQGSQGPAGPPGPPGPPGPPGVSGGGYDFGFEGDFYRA

B1: His tag-modified recombinant fibromodulin (human, amino acids 19–376) (natural protein, UniProt Q06828 19-376, looked up)
chain: QYEDDPHWWFHYLRSQQSTYYDPYDPYPYETYEPYPYGVDEGPAYTYGSPSPPDPRDCPQECDCPPNFPTAMYCDNRNLKYLPFVPSRMKYVYFQNNQITSIQEGVFDNATGLLWIALHGNQITSDKVGRKVFSKLRHLERLYLDHNNLTRMPGPLPRSLRELHLDHNQISRVPNNALEGLENLTALYLQHNEIQEVGSSMRGLRSLILLDLSYNHLRKVPDGLPSALEQLYMEHNNVYTVPDSYFRGAPKLLYVRLSHNSLTNNGLASNTFNSSSLLELDLSYNQLQKIPPVNTNLENLYLQGNRINEFSISSFCTVVDVVNFSKLQVLRLDGNEIKRSAMPADAPLCLRLASLIEI
modifications: tyrosine sulfation (positions not given)
notes: fibromodulin, human, amino acids 19-376; also called FMOD; full-length FMOD; source: 293T cells (pCEP4 vector), purified (Ni-NTA-Sepharose, Superose 6)
For B1, the Kd is about 250 nM in experiment [1] and about 150 nM in experiment [2].

The values are drawn from article PMC4825002, “Fibromodulin Interacts with Collagen Cross-linking Sites and Activates Lysyl Oxidase*” (The Journal of Biological Chemistry, 2016).
